Measured values from patent US20240352438A1, “MEANS AND METHODS FOR DETOXIFYING OCHRATOXIN A” (DSM Austria GmbH, priority 2021, published 2024).

What was measured:
[1] = Thermostability assay: residual OTA detoxification activity after 10 min incubation at 45-99° C. (T50); type: physicochemical; settings: 0.1 mg/mL protein in 20 mM Tris-HCl pH 7.5, residual OTA detoxification activity relative to 4° C. reference aliquot
Method in brief: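 T50 marks the temperature range at which half the starting OTA-detoxifying activity is lost, versus an unheated 4 °C reference. Samples were 0.1 mg/mL purified protein in 20 mM Tris-HCl pH 7.5, exposed for 10 min to 45, 55, 65, 75, 80, 85, 90, 95 or 99 °C.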

[2] = OTA detoxification activity assay (specific activity, fluorescence reduction ex/em 390/450 nm); type: biochemical; settings: for Specific OTA detoxification activities in U/g at pH 6.0 / Specific OTA detoxification activities in U/g at pH 7.5: 37° C., 200 ng/mL OTA, 100 mM sodium phosphate buffer; for Specific OTA detoxification activities in % compared to the enzyme of SEQ ID NO: 2, pH 6.0 / Specific OTA detoxification activities in % compared to the enzyme of SEQ ID NO: 2, pH 7.5: SEQ ID NO: 2 = 100%
Method in brief: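 Recombinant enzyme preparation with 200 ng/mL OTA in 100 mM sodium phosphate, at pH 6.0 and pH 7.5, 37° C. Degradation followed as the fall in fluorescence at ex/em 390/450 nm. Specific activity taken from the initial linear slope; one unit degrades 1 μmol OTA per min at a starting OTA of […].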

B1: 369 (protein)
chain: MRTRTRILTASLALLAANAWAADAMPSTPHTVVLRAARMFDGASGKLVEHPQLTIVGNKIVRVAQDDKAAVPAGADVIDLGDATLLPGFIDAHVHLSGQSSDNWYGDFFDNMMRFPAEQALYGAWYARITLEAGFTSVRDVGSTDWIALGLRNAIDAGKVPGPRMLVSNYAIGSTGGHADQDPIPPQKLAPAGPLQGVCNGPDECRAAVRYQIKYGANVIKFMPSGGVLSLSDPVDAPELTQEEMNAVVGEAHAWGRKVAAHAHGDKAAKMAVAAGVDSIEHGSFLEDDTLRMMKAKGVYLVPTISAVMHVEEKIATFPPVIAEKGRAAAAHVRQTFRHAVQIGVPIALGTDAGVGAHGTNAREFRYMVDNGMAPAQALLAGTSNAARLLGTIDRVGTLEAGKLADVVAVPGNPVADITVTERPVFVMKDGVVVRRGAVR
modifications: exemplary polypeptide
T50 (temperature at which 50% of the initial activity was maintained) [1]: 68 °C
Specific OTA detoxification activities in U/g at pH 6.0 [2]: 122.50 U/g
Specific OTA detoxification activities in U/g at pH 7.5 [2]: 159.80 U/g

B2: 1 (protein)
chain: APAAPHTVVLRAARMFDGASGKLVDHPQLTIVGNKIVRIAQGDKAEVPAGAEVVDLGDATLLPGFIDAHVHLSGQSSDNWYGDFFDNMMRFPAEQALYGAYYARITLEAGFTSVRDVGSTDWVALGLRNAIDAGKVPGPRMLVSNYAVGSTGGHADQDPIPPHKLPLAGPLQGVCNGPEECRAAVRYQIKYGANVIKFMPSGGVLSLSDPVDAPELSQDEMNAVIGESHAWGRKVAAHAHGDKAAKMAVAAGVDSIEHGSFIEDDTLRAMKAKNVYLVPTISAIAHVEEKIGTFPPVIAEKGRAAAAHLRQTFRHAVQIGVPIALGTDAGVGAHGSNAREFRYMVENGLTPAQALLAGTANAARLLGTFDRVGTLEAGKLADVVAVPGNPIADITVTERPLFVMKDGVVVRRDAVR
modifications: polypeptide 1
T50 (temperature at which 50% of the initial activity was maintained) [1]: 65-75 °C
Specific OTA detoxification activities in U/g at pH 6.0 [2]: 99.00 U/g
Specific OTA detoxification activities in U/g at pH 7.5 [2]: 191.89 U/g

B3: 2 (protein)
chain: MYSLAIRNGIVFDGEKFIGKTNIYVDGDKIVKITNERLDAKEEVNAEGYFVMPGLIDAHLHLTGIRGGSLLMGYLLDDPRTRLLRAANWARELLMAGFTTVRDCGEPNSIILRNAINEGIIPGPRIIAAGSPITQTFGHAELSHSLPLEWSIQLGFGEICDGVDECIKAARKVLRSGADFIKIMATGGVLSERDRPEWPQLTPEEMSAIVREAEKVGTYVAAHAHGDKGARIAVEAGVRTIEHGSLITEETVKLMAEKGVSLTPTLSIQELIYKYGKQMGIDPWGLEKIGQVREGVINSIKLARKYGVMILAGTDLGFKTGLDIDMGKNWVEVKLLVELGGLSSEEALRAATGNASKMLRLNTGIIREGYLADIVLINGNPLENINDIARVSTVIKGGKVTVENGKLI
modifications: polypeptide 2
T50 (temperature at which 50% of the initial activity was maintained) [1]: >95 °C
Specific OTA detoxification activities in U/g at pH 6.0 [2]: 0.61 U/g
Specific OTA detoxification activities in U/g at pH 7.5 [2]: 0.73 U/g

B4: 17 (protein)
chain: MTTRLRILTASLALLAANACAADAAPSTPHTVVLRAARMFDGASGKIVEHPQLTIVGNKIVRIAQGKEEDNRTGIPAGADVIDLGDATLLPGFIDAHVHLSGQSSDNWYGDFFDNMMRFPAEQALYGAYYARITLEAGFTSVRDVGSTDWIALGLRNAIDAGKVPGPRMLVSNYAVGSTGGHADQDPIPPQKLAPAGPLQGVCNGPEECRAAVRYQIKYGANVIKFMPSGGVLSLSDPVDAPELSQDEMNAVIGEAHAWGRKVAAHAHGDKAAKMAVTAGVDSIEHGSFLEDDTLRMMKAKGVYLVPTISAIAHVEEKIATFPSVIAEKGRAAASHSRQMFRHAVQIGVPIALGTDAGVGAHGTNAREFRYMVDNGLTPAQSLMAGTANAARLLGTFDRVGTLEAGKLADVVAVPGNPIADITVTERPVFVMKDGVVVRRGAVR
modifications: polypeptide 3
T50 (temperature at which 50% of the initial activity was maintained) [1]: 65-75 °C
Specific OTA detoxification activities in U/g at pH 6.0 [2]: 11.65 U/g
Specific OTA detoxification activities in U/g at pH 7.5 [2]: 28.44 U/g

B5: 18 (protein)
chain: MPPMRTRTRILTASLALLAANAWAADAMPSTPHTVVLRAARMFDGASGKLVEHPQLTIVGNKIVRVAQDDKAAVPAGADVIDLGDATLLPGFIDAHVHLSGQSSDNWYGDFFDNMMRFPAEQALYGAWYARITLEAGFTSVRDVGSTDWIALGLRNAIDAGKVPGPRMLVSNYAIGSTGGHADQDPIPPQKLAPAGPLQGVCNGPDECRAAVRYQIKYGANVIKFMPSGGVLSLSDPVDAPELTQEEMNAVVGEAHAWGRKVAAHAHGDKAAKMAVAAGVDSIEHGSFLEDDTLRMMKAKGVYLVPTISAVMHVEEKIATFPPVIAEKGRAAAAHVRQTFRHAVQIGVPIALGTDAGVGAHGTNAREFRYMVDNGMAPAQALLAGTSNAARLLGTIDRVGTLEAGKLADVVAVPGNPVADITVTERPVFVMKDGVVVRRGAVR
modifications: polypeptide 4
T50 (temperature at which 50% of the initial activity was maintained) [1]: 81-83 °C
Specific OTA detoxification activities in U/g at pH 6.0 [2]: 39.30 U/g
Specific OTA detoxification activities in U/g at pH 7.5 [2]: 147.14 U/g

B6: 39 (protein)
chain: MYSLAIRNGIVFDGEKFIGKTNIYVDGDKIVKITNERLDAKEEVNAEGYFVMPGLIDAHLHLTGIRGGSLLMGYLLDDPRTRLLRAANWARELLMAGFTTVRDCGEPNSIILRNAINEGIIPGPRIIAAGSPITQTFGHAELSHSLPLEWSIQLGFGEICDGVDECIKAARKVLRSGADFIKIMATGGVLSERDRPEWPQLTPEEMSAIVREAEKVGTYVAAHAHGDKGARIAVEAGVRTIEHGSLITEETVKLMAEKGVSLTPTLSAQELIYKYGKQMGIDPWGLEKIGQVREGVINSIKLARKYGVMILAGTDLGFKTGLDIDMGKNWVEVKLLVELGGLSSEEALRAATGNASKMLRLNTGIIREGYLADIVLINGNPLENINDIARVSTVIKGGKVTVENGKLI
modifications: exemplary polypeptide
T50 (temperature at which 50% of the initial activity was maintained) [1]: >99 °C
Specific OTA detoxification activities in % compared to the enzyme of SEQ ID NO: 2, pH 6.0 [2]: 8.00%
Specific OTA detoxification activities in % compared to the enzyme of SEQ ID NO: 2, pH 7.5 [2]: 15.00%

B7: 40 (protein)
chain: MYSLAIRNGIVFDGEKFIGKTNIYVDGDKIVKITNERLDAKEEVNAEGYFVMPGLIDAHLHLTGIRGGSLLMGYLLDDPRTRLLRAANWARELLMAGFTTVRDCGEPNSIILRNAINEGIIPGPRIIAAGSPITQTFGHAELSHSLPLEWSIQLGFGEICDGVDECIKAARKVLRSGADFIKIMATGGVLSERDRPEWPQLTPEEMSAIVREAEKVGTYVAAHAHGDKGARIAVEAGVRTIEHGSLITEETVKLMAEKGVSLTPTLSIIELIYKYGKQMGIDPWGLEKIGQVREGVINSIKLARKYGVMILAGTDLGFKTGLDIDMGKNWVEVKLLVELGGLSSEEALRAATGNASKMLRLNTGIIREGYLADIVLINGNPLENINDIARVSTVIKGGKVTVENGKLI
modifications: exemplary polypeptide
T50 (temperature at which 50% of the initial activity was maintained) [1]: >99 °C
Specific OTA detoxification activities in % compared to the enzyme of SEQ ID NO: 2, pH 6.0 [2]: 15.00%
Specific OTA detoxification activities in % compared to the enzyme of SEQ ID NO: 2, pH 7.5 [2]: 61.00%

B8: 41 (protein)
chain: MYSLAIRNGIVFDGEKFIGKTNIYVDGDKIVKITNERLDAKEEVNAEGYFVMPGLIDAHLHLTGIRGGSLLMGYLLDDPRTRLLRAANWARELLMAGFTTVRDCGEPNSIILRNAINEGIIPGPRIIAAGSPITQTFGHAELSHSLPLEWSIQLGFGEICDGVDECIKAARKVLRSGADFIKIMATGGVLSERDRPEWPQLTPEEMSAIVREAEKVGTYVAAHAHGDKGARIAVEAGVRTIEHGSLITEETVKLMAEKGVSLTPTLSIQELIYKVGKQMGIDPWGLEKIGQVREGVINSIKLARKYGVMILAGTDLGFKTGLDIDMGKNWVEVKLLVELGGLSSEEALRAATGNASKMLRLNTGIIREGYLADIVLINGNPLENINDIARVSTVIKGGKVTVENGKLI
modifications: exemplary polypeptide
T50 (temperature at which 50% of the initial activity was maintained) [1]: 99 °C
Specific OTA detoxification activities in % compared to the enzyme of SEQ ID NO: 2, pH 6.0 [2]: 272.00%
Specific OTA detoxification activities in % compared to the enzyme of SEQ ID NO: 2, pH 7.5 [2]: 1551.00%

B9: 42 (protein)
chain: MYSLAIRNGIVFDGEKFIGKTNIYVDGDKIVKITNERLDAKEEVNAEGYFVMPGLIDAHLHLTGIRGGSLLMGYLLDDPRTRLLRAANWARELLMAGFTTVRDCGEPNSIILRNAINEGIIPGPRIIAAGSPITQTFGHAELSHSLPLEWSIQLGFGEICDGVDECIKAARKVLRSGADFIKIMATGGVLSERDRPEWPQLTPEEMSAIVREAEKVGTYVAAHAHGDKGARIAVEAGVRTIEHGSLITEETVKLMAEKGVSLTPTLSIQELIYKYGKQMGIDPWGLEKIGQVREGVINSIKLARKYGVMILAGTDLGVKTGLDIDMGKNWVEVKLLVELGGLSSEEALRAATGNASKMLRLNTGIIREGYLADIVLINGNPLENINDIARVSTVIKGGKVTVENGKLI
modifications: exemplary polypeptide
T50 (temperature at which 50% of the initial activity was maintained) [1]: >99 °C
Specific OTA detoxification activities in % compared to the enzyme of SEQ ID NO: 2, pH 6.0 [2]: 131.00%
Specific OTA detoxification activities in % compared to the enzyme of SEQ ID NO: 2, pH 7.5 [2]: 595.00%

B10: 43 (protein)
chain: MYSLAIRNGIVFDGEKFIGKTNIYVDGDKIVKITNERLDAKEEVNAEGYFVMPGLIDAHLHLTGIRGGSLLMGYLLDDPRTRLLRAANWARELLMAGFTTVRDCGEPNSIILRNAINEGIIPGPRIIAAGSAITQTFGHAELSHSLPLEWSIQLGFGEICDGVDECIKAARKVLRSGADFIKIMATGGVLSERDRPEWPQLTPEEMSAIVREAEKVGTYVAAHAHGDKGARIAVEAGVRTIEHGSLITEETVKLMAEKGVSLTPTLSIQELIYKYGKQMGIDPWGLEKIGQVREGVINSIKLARKYGVMILAGTDLGFKTGLDIDMGKNWVEVKLLVELGGLSSEEALRAATGNASKMLRLNTGIIREGYLADIVLINGNPLENINDIARVSTVIKGGKVTVENGKLI
modifications: exemplary polypeptide
T50 (temperature at which 50% of the initial activity was maintained) [1]: >99 °C
Specific OTA detoxification activities in % compared to the enzyme of SEQ ID NO: 2, pH 6.0 [2]: 46.00%
Specific OTA detoxification activities in % compared to the enzyme of SEQ ID NO: 2, pH 7.5 [2]: 19.00%
